# Data reported in patent US9687591B2, “Building stratified biomimetic tissues and organs using crosslinked ultrashort peptide hydrogel membranes” (Agency for Science, Technology and Research, priority 2010, dated 2017).
# “Also recorded” adds a separate entry of the source. Ends that are not written are not given here. Peptide text beside a SMILES is read from it.
# How the values were obtained:
# [1] = Kinetics of disulfide formation, oxidation by air (Ellman's assay); assay type: physicochemical; conditions: 12 mM in water, capped tubes, room temperature, after 5 days
# Experimental: For oxidation by air, LK6C dissolved in water at 12 mM was left in capped micro-centrifuge tubes at room temperature. […] H2O2-assisted oxidation was much more efficient in the formation of disulfide bridges.
# (§1) For air oxidation, LK6C was dissolved in MilliQ water by vigorous vortexing for five minutes and dispensed into 20 μL aliquots. At appropriate time points, 180 μL of DTNB (Sigma, Singapore) working solution (4 mg/mL in 0.1M phosphate buffer pH 7.0) was mixed with the peptide solution for 15 minutes. Absorbance at 412 nm was then measured (InfiniteM200, Tecan, Switzerland). Using a calibration curve generated with L-cysteine (Sigma) as standard (R^2=0.999), the background-subtracted value was normalised to the reading at 0 hour to give the % of thiol remaining. For H2O2-assisted oxidation, LK6C was dissolved in water (HPLC grade, J. T. Baker, N.J., USA) containing 0.06% H2O2 (Merck, Sinagpore) and dispensed into aliquots. At appropriate time points, the aliquots were analysed using an Aquity® UPLC (Waters, USA) fitted with a single-quadrupole MS. Using a calibration curve generated with pure LK6C as standard (R^2=0.999), the area under the peak corresponding to LK6C monomer was normalised to that at 0 hour to give the % of thiol remaining.
# [2] = Kinetics of disulfide formation, H2O2-assisted oxidation (UPLC); assay type: physicochemical; conditions: 12 mM in water containing 0.06% H2O2, after 1 day
# Experimental: Only ˜50% of thiols remained after 1 day. The R^2 value of the thiol calibration curve was 1.000.
# as §1
# skins of guinea pigs = assay: Direct contact Kligman maximization test (GLP, ISO 10993-10); assay type: in vivo; conditions: GLP study by CRO Toxikon
# V79 = assay: Direct contact V79 colony assay (GLP); assay type: cell-based; conditions: GLP study by CRO Toxikon
# [3] = Oscillation rheology of cysteine-containing peptide gels (stiffness G', LVE limit); assay type: physicochemical
# Excerpt: Oscillatory rheology was used to quantify the stiffness of IVKC gels formed in the presence of varying amount of H2O2 in PBS. Elastic modulus, G′, was plotted against angular frequency, ω (FIG. 45). As already mentioned in FIG. 41, the G′ value increased tremendously after crosslinking with 0.06% H2O2 in PBS. Further increasing the amount of H2O2 increased the G′ values even more. For instance, gels cross-linked completely with 0.2% H2O2 in PBS achieved a G′ value of nearly 1 MPa. This level of stiffness was not achieved before. Hereafter, IVKC gels will be prepared in the presence of 0.2% H2O2 in PBS. Data here was reported as average of 4 samples±standard deviation.
# Rheology: The rheological properties of casted gels were measured with an ARES-G2 (TA Instruments, USA) using the oscillation method. Frequency-sweep studies were performed with ω=0-100 rad/s at strain, γ=0.1%. The gel stiffness was represented by plotting G′ against ω. Amplitude-sweep studies were performed beforehand at 1 Hz with γ=0-100%. The LVE limit of the gel was defined as the value of γ when G′ first dropped below 90% of the average initial value.
# The rheological properties of casted gels were measured with an ARES-G2 (TA Instruments, USA) using the oscillation method. Frequency-sweep studies were performed with ω=0-100 rad/s at strain, γ=0.1%. The gel stiffness was represented by plotting G′ against ω. […]
# [4] = Extent of crosslinking of IVKC by UPLC; assay type: physicochemical; conditions: 24 hours
# Experimental: (§2) The crosslinking density of IVKC could be further modulated with H2O2 content. Ultra performance liquid chromatography (UPLC) was used to study the extent of crosslinking in IVKC after oxidation with varying amount of H2O2 in PBS for 24 hours. […] At 0.2% H2O2 in PBS for instance, IVKC was 100% crosslinked and none of the monomers remained.
# as §2, with “can” for “could”, “be” for “be further”, “hours (FIG. 43). In the absence of H2O2, IVKC remained mostly as monomers (>96%).” for “hours.”, “cross-linked” for “crosslinked”
# The crosslinking density of Ac-IVKC was modulated by varying the concentration of H2O2 (0-0.2%). The amount of monomeric (retention time-2.40 mins) and dimeric (˜2.67 mins) species were then quantified with ultra-performance liquid chromatography (UPLC) after incubation in the various H2O2 concentration for 24 hours at room temp (FIG. 43).
# [5] = tested on: Human corneal endothelial cells (HCEC); assay: Biocompatibility of cross-linked IVKC gels, calcein staining; assay type: cell-based; conditions: gels cross-linked with 0.2% H2O2 in PBS for 24 hours and purified
# Experimental: To test the biocompatibility of cross-linked IVKC gels, a sensitive primary cell type was seeded onto the gels. IVKC gels were cross-linked with 0.2% H2O2 in PBS for 24 hours and excess H2O2 was purified from the gel using a dialysis-inspired method (as described in WO 2014/116187).
# To test the biocompatibility of cross-linked IVKC gels, a sensitive primary cell type was seeded onto the gels. IVKC gels were cross-linked with 0.2% H2O2 in PBS for 24 hours and excess H2O2 was purified from the gel using a dialysis-inspired method reported previously, see e.g. WO 2014/116187. Human corneal endothelial cells (HCEC, a kind gift from Singapore Eye Research Institute) freshly derived from human donor corneas were then seeded onto the gel and maintained in culture.
# [6] = Water soak of casted gels (shape retention / degradation); assay type: physicochemical; conditions: not oxidised, 24 hours of water soak
# Experimental: Peptide was dissolved in 200 μL of water+/−H2O2 and filled into custom-made hollow ring casts (diameter ˜1 cm). The ring ends were sealed with parafilm to minimise evaporation and the cast was kept at 25° C. for 22 hours before further manipulations.
# LK6 or LK6C gels were first casted and then soaked in water for various durations. […] These observations are also supported by rheological measurements (FIG. 28). Therefore, the strategy of disulfide crosslinking has increased the resistance of the gel to degradation and has made it possible to use the gel at a lower concentration compared to previous formulations. This, in turn, will translate into significant cost savings.
# [7] = Concentration needed for gelation; assay type: physicochemical
# Experimental: FIG. 18A illustrates the determination of a suitable gelation concentration with the LK6 control peptide sequence. A working concentration was established that was suitably low so as to save on material during testing but yet, capable of forming gels strong enough to be manipulated. LK6 gels were therefore casted at different concentrations and their stiffness was measured (average±s.d. of triplicates). As expected, G′ values increased with peptide concentration and it was determined that a working concentration of 12 mM afforded gels with sufficient mechanical integrity to withstand handling.
# The present invention as defined above offers significant improvements in material properties such as stiffness, elasticity and resistance of the gel to degradation compared to previous disclosures—ultra-small peptide-based and peptide/polymer-based hydrogels. Reactive chemical groups are also introduced to the peptide fibers which allow the facile in-situ chemical conjugation of biological signals. Furthermore, compared to previous formulations, less material is now needed for gelation (e.g. 10 mg/ml LK6C instead of 25 mg/ml for LK6), which translates into significant cost savings and higher water contents. This class of material is suitable for biomedical applications, for example but not limited to, three-dimensional cell culture, tissue engineering, sensing and drug and gene delivery.
compound,measurement,setting,value
"CC[C@H](C)[C@H](NC(=O)[C@H](CC(C)C)NC(C)=O)C(=O)N[C@H](C(=O)N[C@@H](C)C(=O)NCC(=O)N[C@@H](CCCCN)C(=O)N[C@@H](CS)C(=O)O)C(C)C [LK6C, LIVAGKC] (Ac-LIVAGKC-OH)",% of thiols remaining,[1],~80%
same,% of thiols remaining,[2],~50%
same,skin sensitization,skins of guinea pigs,no sensitization
same,toxicity,V79,no significant toxicity
Ac-IVKC,increase of stiffness after oxidative crosslinking,[3]; 0.06% H2O2 in PBS,close to two orders
same,"stiffness, elastic modulus G'",[3]; gels crosslinked completely with 0.2% H2O2 in PBS,~1 MPa
same,crosslinked fraction,[4]; 0.2% H2O2 in PBS,100%
same,monomer content,"[4]; absence of H2O2, PBS",> 96%
same,duration cells remained viable (positive calcein staining),[5],at least ten days
LIVAGK (L-form) [LK6],gel state after water soak,[6],did not survive; also recorded: completely degraded
same,concentration needed for gelation,[7],25000 µg/mL
